Experiments:
Test in all cases: SPR
[1] = target: IgV domain of human SIRPα v1 (Homo sapiens (Human)., UniProt P78324-1)
[2] = target: IgV domain of human SIRPα v2 (Homo sapiens, SIRPα allele v2 …, strain)
[3] = target: T1, IgV domain of cynomolgus SIRPα (Macaca fascicularis, EHH65484.1 allele)
T1 chain: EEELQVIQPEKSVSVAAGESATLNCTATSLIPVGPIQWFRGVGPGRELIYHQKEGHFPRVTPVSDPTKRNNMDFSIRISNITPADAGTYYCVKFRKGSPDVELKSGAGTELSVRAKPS

[4] = target: IgV domain of mouse C57BL/6 SIRPα (Mus musculus, strain C57BL/6, UniProt P97797, strain)
[5] = target: IgV domain of human SIRPγ (Homo sapiens, SIRPγ NP_061026.2, UniProt Q9P1W8)
[6] = target: IgV domain of human SIRPβ1 (Homo sapiens, SIRPβ1 NP_006056.2, UniProt O00241)
[7] = target: T2, IgV domain of mouse NOD SIRPα (Mus musculus, strain NOD, strain)
T2 chain: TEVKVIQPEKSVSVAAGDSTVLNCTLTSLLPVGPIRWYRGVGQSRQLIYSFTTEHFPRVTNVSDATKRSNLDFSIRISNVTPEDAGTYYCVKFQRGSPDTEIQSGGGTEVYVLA

[8] = target: T3, IgV domain of mouse BALB/c SIRPα (Mus musculus, strain BALB/c, strain)
T3 chain: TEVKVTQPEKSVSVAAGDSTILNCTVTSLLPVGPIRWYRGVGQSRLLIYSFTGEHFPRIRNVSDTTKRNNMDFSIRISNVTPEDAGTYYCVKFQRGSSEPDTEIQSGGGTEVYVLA

Chain of IgV domain of human SIRPα v1 (P78324 31-149): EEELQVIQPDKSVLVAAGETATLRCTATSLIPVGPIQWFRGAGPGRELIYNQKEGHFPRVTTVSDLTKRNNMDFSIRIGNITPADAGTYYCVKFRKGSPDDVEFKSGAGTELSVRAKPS

B1: anti-SIRPα antibody clone 119, full-length IgG1 (antibody, V domains shown)
VH: DVQLLESGGGVVQPGGSLRLSCAASGFSFSNFAMTWVRQAPGEGLEWVSTIGSGDTYYADSVKGRFTISRDNSKNTLYLQMNSLRAEDTAVYYCAKDSTVSWSGDFFDYWGQGTLVTVSS
VL: EIVLTQSPATLSVSPGERATFSCRASQNVKNDLAWYQQRPGQAPRLLIYAARIRETGIPERFSGSGSGTEFTLTITSLQSEDFAVYYCQQYYDWPPFTFGGGTKVEIK
B1 showed a Kd [1] of 0.183 nM, a Kd [2] of 0.0682 nM and a Kd [3] of 0.112 nM. The binding result [4] was “no binding (tested: 100 nM)”, the Kd [5] was 0.267 nM and the Kd [6] was 0.342 nM.

B2: anti-SIRPα antibody clone 115, full-length IgG1 (antibody, V domains shown)
VH: DVQLVESGGGVVRPGESLRLSCAASGFSFSSYAMNWVRQAPGEGLEWVSRINSGGGGTDYAESVKGRFTISRDNSENTLYLQMNSLRAEDTAVYYCAKQYDWNSFFDYWGLGALVTVSS
VL: ETVLTQSPATLSVSPGERATLSCRASQTVGSKLAWHQQKPGQAPRLLIYDATNRATGISDRFSGSGSGTDFTLTISSLQTEDSAVYYCQQYYYWPPYRFGGGTKVEIK
For B2, the Kd [1] was 0.426 nM, the Kd [2] was 1.86 nM and the Kd [3] was 2.41 nM. B2: no binding (tested: 100 nM) [4]; binds [5]; binds [6].

B3: anti-SIRPα clone 218, scFv-Fc (scFv, V domains shown)
VH: DVQLVESGGGVVRPGESLTLSCTASGFTFTSSTMNWVRQAPGEGLDWVSSISTSGVITYYADSVKGRATISRDNSKNTLYLRLFSLRADDTAIYYCATDTFDHWGPGTLVTVSS
VL: ALTQPASVSANPGETVKITCFGSSGNYGWFQQKSPGSAPVTVIHYNNKRPSDIPSRFSGSKSGSTGTLTITGVRAEDEAVYFCGAWETGSATFGAGTTLTVL
B3 gave a Kd [1] of 0.123 nM, a Kd [2] of 0.276 nM and a Kd [3] of 0.0599 nM. The binding result [4] was “no binding (tested: 100 nM)”, the Kd [5] was 0.0636 nM and the binding result [6] was “binds”.

B4: anti-SIRPα antibody clone 136, full-length IgG1 (antibody, V domains shown)
VH: not shown
VL: ETVLTQSPGTLTLSPGERATLTCRASQSVYTYLAWYQEKPGQAPRLLIYGASSRATGIPDRFSGSGSGTEFTLTISSLQSEDFAVYYCQQYYDRPPLTFGGGTKVEIK
For B4, the Kd [1] was 0.458 nM, the Kd [2] was 1.63 nM and the Kd [3] was 2.15 nM. It also gave a Kd [7] of 0.554 nM, a Kd [4] of 12.7 nM and a Kd [8] of 0.35 nM. It also gave a Kd [5] of 23.9 nM and a Kd [6] of 4.35 nM.

B5: anti-SIRPα antibody clone 3, full-length IgG1 (antibody, V domains shown)
VH: AVTLDESGGGLQTPGGALSLVCKASGFIFSDYGMNWVRQAPGKGLEFVAQITSGSRTYYGAAVKGRATISRDNRQSTVKLQLNNLRAEDTGIYFCARDFGSGVGSIDAWGNGTEVIVSS
VL: ALTQPASVSANLGGTVKITCSGSRGRYGWYQQRSPGSAPVTVIYRDNQRPSNIPSRFSSSTSGSTSTLTITGVQADDESVYFCGSYDGSIDIFGAGTTLTVL
Work on B5 yielded a Kd [1] of 0.162 nM, a Kd [2] of 0.0767 nM and a Kd [3] of 2.29 nM. The Kd [7] was 1.63 nM, the Kd [4] was 3.65 nM and the Kd [8] was 1.16 nM. For the same binder, the Kd [5] was 83.6 nM and the Kd [6] was 1.63 nM.

Source: PMC6748616 (mAbs, 2019)
